Laboratory results from publication PMC13601591 (Nature Communications, 2026).

Target: the molecule itself
Experiment: SDS-resistant oligomer on SDS-PAGE and immunoblot

B1: fh1-HAP2-HA (HAP2 with W173A and F177A mutations in the fusion loop) (natural protein, Chlamydomonas reinhardtii, UniProt A4GRC6 23-1139, looked up)
chain: EVIASGRLEKCVVDGVTEELDCQEKVVVTLTVGNGQSLQTEALEFSLSCLNSPDGRCPCSCSAADPTCACRDLAAPLRVSLTKSPLWASYPLQYLSSFNWKPLEVILRPSNKVCKDGDWEDSPTCGWFSQGGVRVADSQGFCCECSSSQVADDTAGSSKERTRANLDCDFWSDPLDILIGRKPVSAHCLTFDPQWYSGYELGAASLQFEIAITVEVPTAPSPTTATTSATPRTNNSSSANSTNSTNSPAPQFLSPPAPSTREVLHLGPSVPLASSASRLLSAKLLGDLAMYTQLPAISNQVLMVPQPPAAAAATGSPLDATLATNRSAWMLLDKTMLSMDGLACDKVGTGFSAFRYQPSGCGRAPQACLSGQLKDLWEADLARIADGRVPLYMITRFTGGSDTTLQSFSGGPLSFALPVTSHSQSLVTLSVAADGVRLVTNRSPGKITGAAVCRFAGTSCGGFEAVAARGYIYVNITNTGRLDSDYTLTVSNCSSNVRPIEARTLAVRAGSAASLDPPMELYVEDQAAAAARTCTVSLYDSVGAVTDSLTLSFYTNATQLVVKPSGGYNGTGDGAGVKRNGTDCSTACTNPIDVLCFVTKKCWSKFGRLLGIIGGALVGLGLLAVALKFGWLASLAASCCGGGGGAAAGGAGGGMGLGTGGGGGCFGGGQQQQQLPPAASHAMSPPQQQQRSHAEVAAGAAVAGAGAAGAAAAVLGAKHGGGGGGARGKQQHADTRHLQDRDSRAIDGGASIGSSSAGGSSSLSSYSQPREAGGRLLQPPAAAVFVPEGGGGGAAGDEGARAQSSDWDARGRSPRVADEHGSPRQRYDGVRQSPYMVSANPYDGWYDGGSGGGGGGGGGGYGREAPPPQGPPPHPVGAPPPPPRRRSLWERMWLQRPGGGGGGGGGGGGGGGGGSGGGVDQHGGRSCADAARRGGGGPGGMRGVEGLMSNGGRPNGPHPHAPPPPPPPQQQQQQQRQRRSFLESLTAMMTLPWGGGREEEAGGDRRGGGRGGAAAAHGGRGAGGGRGHPPSIGSPPPGPLQPPEYGPQGGQARRWGAGGGRGGVGGDGGGGGVGAAAYVQLSTGGRGGGGGGGRGRGGGREGPTWHNPVYDWQAPPK
stoichiometry N: 3
